Results from US20260061022A1 (GI INNOVATION, published 2026).

Assays:
[1] = molecular target: human IgE (human, UniProt P01854-1 1-428); assay: cell-based or functional assay
[2] = molecular target: T1, IgG Fc gamma receptor IIB (UniProt P31994 46-217, limits assumed); assay: BLI (Octet RED384), FcγRIIB immobilised on AR2G biosensor, IgETRAP in solution
T1 construct: Bought recombinant protein immobilised on an AR2G biosensor; also called FcγRIIB
T1 sequence (looked up): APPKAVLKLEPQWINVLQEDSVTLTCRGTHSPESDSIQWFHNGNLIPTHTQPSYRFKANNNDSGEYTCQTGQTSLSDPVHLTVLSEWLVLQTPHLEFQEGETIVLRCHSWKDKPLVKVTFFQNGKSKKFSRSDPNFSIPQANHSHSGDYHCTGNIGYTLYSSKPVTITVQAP
Protocol: (§1) Specifically, FcγRI, FcγRIIA, FcγRIIB, FcγRIIIA, and FcγRIIIB recombinant proteins (R & D Systems Inc., 5 μg/ml) which are Fc gamma receptors were immobilized in 300 mM acetate buffer (pH 5) on the activated AR2G biosensor. As a running buffer, PBS containing 0.1% Tween-20 and 1% bovine serum was used. All measurements were carried out at 30° C. with a sample plate shaker at a rate of 1,000 rpm.

[3] = molecular target: T2, IgE (Homo sapiens (Human), UniProt P01854 1-427); assay: kinetic binding measurement of Table 3, KD against omalizumab as reference; the end is tied to FcεRIαECD-Fc2ST by 'exhibits the highest IgE-binding affinity which is 69-fold higher than omalizumab'
T2 construct: also called immunoglobulin E
T2 constant: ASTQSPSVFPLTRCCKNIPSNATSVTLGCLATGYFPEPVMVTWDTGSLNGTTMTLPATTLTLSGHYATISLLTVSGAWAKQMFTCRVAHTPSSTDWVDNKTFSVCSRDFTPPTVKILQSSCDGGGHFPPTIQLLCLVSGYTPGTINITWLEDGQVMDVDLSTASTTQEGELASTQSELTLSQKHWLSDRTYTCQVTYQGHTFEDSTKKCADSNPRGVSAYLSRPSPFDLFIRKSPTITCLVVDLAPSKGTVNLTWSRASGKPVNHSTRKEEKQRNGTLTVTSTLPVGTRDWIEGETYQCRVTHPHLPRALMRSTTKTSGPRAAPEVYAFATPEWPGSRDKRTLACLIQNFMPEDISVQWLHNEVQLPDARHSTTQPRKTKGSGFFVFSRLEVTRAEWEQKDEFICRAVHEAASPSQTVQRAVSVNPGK
Protocol: (§2) Here, the experiments were conducted by identifying zero base using 25 mM NaOH as a regeneration buffer, and then repeating the above steps. Thereafter, a binding curve was identified using a protein binding analyzer (ProteOn XPR36, Bio-Rad Laboratories, Inc., USA).

[4] = molecular target: T2, IgE; assay: SPR, ProteOn XPR36, IgE coated on GLC chip, analyte flowed
Protocol: as §2

[5] = molecular target: T2, IgE; assay: SPR (ProteOn XPR36), IgE coated on the GLC sensor chip, IgETRAP flowed at 0, 3.2, 6.3, 12.5, 25 and 50 nM
[6] = molecular target: T3, IgG Fc gamma receptor IIIB (UniProt O75015 20-208, limits assumed); assay: BLI response at 4 uM, FcγRIIIB immobilised on AR2G biosensor
T3 construct: Bought recombinant protein immobilised on an AR2G biosensor; also called FcγRIIIB
Protocol: as §1

[7] = molecular target: T4, IgG Fc gamma receptor IIA (UniProt P12318 36-218, limits assumed); assay: BLI (Octet RED384), FcγRIIA immobilised on AR2G biosensor, IgETRAP in solution
T4 construct: Bought recombinant protein immobilised on an AR2G biosensor; also called FcγRIIA
T4 sequence (looked up): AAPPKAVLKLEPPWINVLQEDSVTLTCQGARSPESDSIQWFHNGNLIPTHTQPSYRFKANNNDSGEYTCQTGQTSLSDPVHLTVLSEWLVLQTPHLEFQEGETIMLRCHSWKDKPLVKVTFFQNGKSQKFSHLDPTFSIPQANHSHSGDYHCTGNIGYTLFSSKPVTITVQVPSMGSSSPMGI
Protocol: as §1

[8] = molecular target: IgE (Experimental Example 4); assay: cell-based or functional assay
[9] = molecular target: T5, IgG Fc gamma receptor I (UniProt P12314 16-288); assay: BLI (Octet RED384), FcγRI immobilised on AR2G biosensor, IgETRAP in solution
T5 construct: Bought recombinant protein immobilised on an AR2G biosensor; also called FcγRI
Protocol: as §1

T3 sequence (O75015 20-208 limits assumed): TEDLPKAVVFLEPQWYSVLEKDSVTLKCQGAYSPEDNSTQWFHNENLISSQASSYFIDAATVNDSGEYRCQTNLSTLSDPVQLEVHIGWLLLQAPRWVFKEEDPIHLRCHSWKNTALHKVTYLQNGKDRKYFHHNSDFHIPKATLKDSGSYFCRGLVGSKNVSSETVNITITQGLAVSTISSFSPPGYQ
T5 sequence (P12314 16-288 limits assumed): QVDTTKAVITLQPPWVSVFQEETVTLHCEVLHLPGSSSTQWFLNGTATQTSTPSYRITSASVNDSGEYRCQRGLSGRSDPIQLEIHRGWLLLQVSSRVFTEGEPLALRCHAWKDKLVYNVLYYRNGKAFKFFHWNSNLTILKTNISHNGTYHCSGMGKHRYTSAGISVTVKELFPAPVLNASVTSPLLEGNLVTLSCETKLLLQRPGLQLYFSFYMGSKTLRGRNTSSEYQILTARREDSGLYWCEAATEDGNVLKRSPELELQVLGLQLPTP

B1: FcεRIαECD-Fc2ST (Fc fusion)
chain: VPQKPKVSLNPPWNRIFKGENVTLTCNGNNFFEVSSTKWFHNGSLSEETNSSLNIVNAKFEDSGEYKCQHQQVNESEPVYLEVFSDWLLLQASAEVVMEGQPLFLRCHGWRNWDVYKVIYYKDGEALKYWYENHNISITNATVEDSGTYYCTGKVWQLDYESEPLNITVIKAPREKYWLQRNTGRGGEEKKGSKEKEEQEERETKTPECPSHTQPLGVFLFPPKPKDTLMISRTPEVTCVVVDVSQEDPEVQFNWYVDGVEVHNAKTKPREEQFNSTYRVVSVLTVLHQDWLNGKEYKCKVSNKGLPSSIEKTISKAKGQPREPQVYTLPPSQEEMTKNQVSLTCLVKGFYPSDIAVEWESNGQPENNYKTTPPVLDSDGSFFLYSRLTVDKSRWQEGNVFSCSVMHEALHNHYTQKSLSLSLGK
modifications: sialic acid added to the glycans by co-expressed α-2,6-sialic acid transferase
notes: Homodimer; also called IgETRAP; FcεRIαECD-Fc2 + a2,6-ST
- IC50, inhibition of β-hexosaminidase secretion by human FcεRI-expressing mouse bone marrow-derived mast cells [1]: ~0.0112 µg/mL
- fold higher inhibitory ability on mast cell activity than Xolair [1]: 58 fold
- binding result [2]: no binding (tested: 4 uM)
- fold change of equilibrium dissociation constant (KD) against omalizumab (printed as 'higher'; meant as higher affinity) [3]: 22 to 69 fold
- fold better KD than omalizumab [4]: 69 fold
- fold better kd than omalizumab [4]: 106 fold
- fold weaker ka than omalizumab [4]: 1.5 fold
- Kd [5]: 0.215 nM
- binding result [6]: no binding (tested: 4 uM)
- binding result [7]: no binding (tested: 4 uM)
- IC50 (read off the curve); inhibition ratio (%) of beta-hexosaminidase release from mouse bone marrow-derived mast cells, dimer pre-mixed with IgE at 1 ug/mL [8]: ~0.5 µg/mL
- binding result [9]: no binding (tested: 4 uM)

B2: FcεRIαECD-Fc2 (Fc fusion)
chain: B1 chain
notes: Made in CHO DG44 cells without the sialic acid transferase; Homodimer joined through the hinge cysteine; also called polypeptide dimer
- fold better KD than omalizumab [4]: 38 fold
- fold better kd than omalizumab [4]: 73 fold
- fold weaker ka than omalizumab [4]: 1.9 fold

B3: FcεRIαECD-Fc3 (Fc fusion)
chain: VPQKPKVSLNPPWNRIFKGENVTLTCNGNNFFEVSSTKWFHNGSLSEETNSSLNIVNAKFEDSGEYKCQHQQVNESEPVYLEVFSDWLLLQASAEVVMEGQPLFLRCHGWRNWDVYKVIYYKDGEALKYWYENHNISITNATVEDSGTYYCTGKVWQLDYESEPLNITVIKAPREKYWLQAQPQAEGSLAKATTAPATTRNTGRGGEEKKGSKEKEEQEERETKTPECPSHTQPLGVFLFPPKPKDTLMISRTPEVTCVVVDVSQEDPEVQFNWYVDGVEVHNAKTKPREEQFNSTYRVVSVLTVLHQDWLNGKEYKCKVSNKGLPSSIEKTISKAKGQPREPQVYTLPPSQEEMTKNQVSLTCLVKGFYPSDIAVEWESNGQPENNYKTTPPVLDSDGSFFLYSRLTVDKSRWQEGNVFSCSVMHEALHNHYTQKSLSLSLGK
notes: Made in CHO DG44 cells without the sialic acid transferase; Homodimer; also called polypeptide dimer
- fold better KD than omalizumab [4]: 22 fold
- fold better kd than omalizumab [4]: 45 fold
- fold weaker ka than omalizumab [4]: 2 fold

B4: FcεRIαECD-Fc3ST (Fc fusion)
chain: B3 chain
modifications: sialic acid added to the glycans by co-expressed α-2,6-sialic acid transferase
notes: Homodimer; also called FcεRIαECD-Fc3 + a2,6-ST; polypeptide dimer
- fold better KD than omalizumab [4]: 24 fold
- fold better kd than omalizumab [4]: 40 fold
- fold weaker ka than omalizumab [4]: 1.7 fold
